The DeepSol protein solubility set

assay: soluble on expression in E. coli; label from the status in PepcDB or PDB records

Sequence	soluble on expression in E. coli
MAAKRLAVLCIFLLPNTQFRQLRLAETAEELPQLLREAEKASWTYLEFLESITRYELAKREAKSLEKRMKWARFPFVKSLDEFELRGQNVLTARQLSQLRELSWLEQQYNLILLGPPGIGKTYIAIGLGLEAVYRGFHVYFATMGELVQLLKSEEYLNKSKVQLKRIRNADLVIIDDLMYMAMDQREANLFFHLINHLYERSSIILTSNKSPEEWGHLIGDQGITTAILDRLLHRVEVIHGGENEESHRMKNRKSIFSAEVLEHHHHHH	not soluble
MAAKVEPFWKRKTLAQLDQDEWESLCDGCGLCCLQKLEDEDDGSVYYTRIACKLLDLQSCRCTNYAERIRFVPDCIQLTPAQADEFQWLPPTCGYRLVAEGKDLPLWHHLVCGDPERVHKERISQSGRMLSETQVAEDDWEDYLIFRAG	not soluble
MAALSDKLADAYQNARPRYPIDWFTKLAARTGQHKSAWDVGTGNGQAAIGLAEYFEKVTATDINEAQLKRAVKHERISYHHTPTTMSEDQMVALVGGDNSVDLIVAAQAVHYFDLAPFYNVAKRVLRKEGGLIAVFVYNDIIISPEVDSIMKRLVDSTFPFRTPVMNLAFDGYKTLPFPFESIGMGSEGKPIMLDIPHKLSLKGFIGFLRSWQPAMKAKERGVELVTEDLISKFEDAWGDDDDVKDIFYKAHMIVGKLSASDIERHRKRFDTNCVVTTLKDHNNSAVIASVTAAAFAGVAAYCAYSARKNS	soluble
MAAPAQQTTQPGGGKRKGKAQYVLAKRARRCDAGGPRQLEPGLQGILITCNMNERKCVEEAYSLLNEYGDDMYGPEKFTDKDQQPSGSEGEDDDAEAALKKEVGDIKASTEMRLRRFQSVESGANNVVFIRTLGIEPEKLVHHILQDMYKTKKKKTRVILRMLPISGTCKAFLEDMKKYAETFLEPWFKAPNKGTFQIVYKSRNNSHVNREEVIRELAGIVCTLNSENKVDLTNPQYTVVVEIIKAVCCLSVVKDYMLFRKYNLQEVVKSPKDPSQLNSKQGNGKEAKLESADKSDQNNTAEGKNNQQVPENTEELGQTKPTSNPQVVNEGGAKPELASQATEGSKSNENDFS	not soluble
MAAQPNAPESAWPVRELNSKVKSWIERLGHLWVEGQITQLNMKPSWKFSYITLRDPEAEASVQLTCATSLLHSLPSRLQDGDRVVVYGKPAFYEGRGSFSLWVTDIRPVGVGELLARIERLRQQLASEGLFDPALKKPLPFLPHTIGLITGRGSAAERDVLAVAHSRWPEVKFNVINTAVQGARAVPEIIEALQRLDADPSVDVIIIARGGGSVEDLLPFSEEALQRAVVAAHTPVVSAIGHEPDNPVLDNVADLRAATPTDAAKKVVPDVAAERQLIAELRSRSAAALRGWVHKERQQLAAVRSRPALADPVRAITLHREEIARSISSIRRDMRYMLSTERATVASLRQQVAALGPSATLARGYAVVQVVPRDGSAPEVVTTIGMSPPGSQLRIRVADGSITAAAMQTTPAD	not soluble
MAAQVLSGHEAAEAVYEEIRARLRSLSFTPSLRVIRLGEDPASVAYVRLKDKRARALGYRSQVEVYPEDLPEEALLERIAALNADEEVDGILVQLPLPPHIRTQRVLEAIHPLKDVDGFHPLNVGRLWSGGKGLFPCTPLGVVRLLKHYGVDLRGKEVVVVGRSNIVGKPLAGLLLREDATVTLAHSKTQDLPEVTRRAQVLVVAVGRPHLVRKEWVREGAIVVDVGVNRVEGRLLGDVHPEVAEVAFALTPVPGGVGPMTVAMLMGNTLEAALLRRHGASG	soluble
MAASKKAVLGPLVGAVDQGTSSTRFLVFNSKTAELLSHHQVEIKQEFPREGWVEQDPKEILHSVYECIEKTCEKLGQLKIDISNIKAIGVSNQRETTVVWDKITGEPLYNAVVWLDLRTQSTVESLSKRITGNNNFVKSKTGLPLSTYFSAVKLRWLLDNVRKVQKAVEEKRALFGTIDSWLIWSLTGGVNGGVHCTDVTNASRTMLFNIHSLEWDKQLCEFFGIPMEILPNVRSSSEIYGLMKISHSVKAGALEGVPISGCLGDQSAALVGQMCFQIGQAKNTYGTGCFLLCNTGHKCVFSDHGLLTTVAYKLGRDKPVYYALEGSVAIAGAVIRWLRDNLGIIKTSEEIEKLAKEVGTSYGCYFVPAFSGLYAPYWEPSARGIICGLTQFTNKCHIAFAALEAVCFQTREILDAMNRDCGIPLSHLQVDGGMTSNKILMQLQADILYIPVVKPSMPETTALGAAMAAGAAEGVGVWSLEPEDLSAVTMERFEPQINAEESEIRYSTWKKAVMKSMGWVTTQSPESGIP	not soluble
MAASLGLAAAAASAWAQAPAMDHGSMPGMDHGAAPASAMDHGSMPGMDHGAAPAPAIGALPSSDGAGDQSYAAYGIHSHMMDDMATSQLLFDKLGMTYDRDRRTGLQWDGQFWVGRDLDKLWIKSEGERVGGRSDGKVEAFWNRTISPFWDLQVGARRDFGTGPKRNWGAIGLQGVAPYNIETEVTAYVGGSGRTALALKAEYDLLLTQRLVLTPEIEASVYGKDDKARGIGAGLSDASFSLRLRYEITREVAPYVGVSFGRKFGRTASYASEEGESRSERAIMAGVRIWFLEHHHHHH	not soluble
MAATATEKLPQLKSAVDGLTEMSENEKSGFINLVSRYLSGEAQHIEWSKIQTPTDEIVVPYDKMANVSEDASETKYLLDKLVVLKLNGGLGTTMGCTGPKSVIEVRDGLTFLDLIVIQIENLNNKYNCKVPLVLMNSFNTHDDTQKIVEKYTKSNVDIHTFNQSKYPRVVADEFVPWPSKGKTDKDGWYPPGHGDVFPSLMNSGKLDAFLSQGKEYVFIANSDNLGAIVDLKILKHLIQNKNEYCMEVTPKTLADVKGGTLISYEGKVQLLEIAQVPDEHVNEFKSIEKFKIFNTNNLWVNLKAIKKLVEADALKMEIIPNPKEVDGVKVLQLETAAGAAIRFFDNAIGVNVPRSRFLPVKATSDLLLVQSDLYTLVDGFVTRNKARTNPTNPAIELGPEFKKVASFLSRFKSIPSIVELDSLKVSGDVWFGSGVVLKGKVTVKANAGTKLEIPDNAVLENKDINGPEDL	soluble
MAAVDVNQPITGHKSAIIRNYNTNPRLIYQTVCGVNGPLVILNDVKFPQFSEIVKITLPDGSKRSGQVLEISKNKAVVQVFEGTSGIDAKNTICEFTGDILRTPVSEDMLGRIFNGSGKPIDKGPPVLAEDFLDINGQPINPWSRIYPEEMIQTGISAIDVMNSIARGQKIPIFSASGLPHNEIAAQIVRQGGLVQLPDRPHEQTNFAIVFAAMGVNMETARFFKQDFEENGSMENVCLFLNLANDPTIERIITPRIALTSAEFLAYQCKKHVLVVLTDMSSYAEALREVSAAREEVPGRRGFPGYMYTDLATIYERAGRVEGRDGSITQIPILTMPNDDITHPIPDLTGYITEGQIYVDRQLHNRLIYPPINVLPSLSRLMKSAIGEGMTREDHSDVSNQLYACYAIGKDVQAMKAVVGEEALSSDDLLYLEFLTKFEKNFITQGHYENRSVFESLDIGWQLLRIFPREMLKRIPESTLEKYYPRGGAKE	not soluble
MADGMGNLIGWEKTGLVVGKQWITAKDDKVSDVCNANGEMGVIGLYEPFSHGALTIPGHPNCRCEVVSVSGGELGEFAEKKELRKAAMQYARDNFIGKSYVNKNSGHELKVTWQGVKHAASKANQAELSIMTKLDDLLRYAKYEGSYSDRKGHPNIIAAHKYRAVAKVGNESLNIGVIVREFPDDHKHYDHFILKDE	not soluble
MADLFAGKPLINQEGKELDGGDALRGKKVVALYFSAMWCGSCRQFTPKLKRFYEALKAAGKEIEVVLVSRDREAEDLLEYLGHGGDWVAIPFGDERIQEYLKKYEVPTIPAFKLINNAGELLHDARADVTERGKDDAVALFDEWVEKFPAN	not soluble
MADLIARLREDGIQKRVIQEGRGELPDFQDGTKATFHFRTLHSDNEGSVIDDSRTRGKPMELIVGKKFKLPVWETIVCTMREGEIAQFLCDIKHVVLYPLVAKSLRNIAEGKDPLEGQRHCCGIAQMHEHSSLGHADLDALQQNPQPLIFHIEMLKVESPGTYQQDPWAMTDEEKAKAVPVIHQEGNRLYREGQVKEAAAKYYDAIACLKNLQMKEQPGSPDWIQLDLQITPLLLNYCQCKLVAQEYYEVLDHCSSILNKYDDNVKAYFKRGKAHAAVWNAQEAQADFAKVLELDPALAPVVSRELRALETRIRQKDEEDKARFRGIFSH	soluble
